Assay results published in patent US20050064507A1, “Determining kinase specificity” (priority 2003, published 2005).

Assays:
[1] = molecular target: T1, PKA (Homo sapiens, UniProt P17612); assay: In vitro kinase assay: peptide phosphorylation by PKA; type: biochemical; conditions: normalized to best substrate
T1 construct: purchased Calbiochem
Procedure: Catalytically active preparations of the kinases of interest were either purchased or prepared. Purchased and tested active kinase preparations including the following: PKC-alpha, PKC-delta, PKC-epsilon, PKC-zeta, PKC-mu, PKA, PKG from Calbiochem, ROK alpha/ROCK-II, active from Upstate Biotechnology, and AKT1 from Panvera.
The conditions of the kinase assay and the amount of active kinase used varied with the kinase and with the accuracy needed. For a typical experiment, 5-20 ng of kinase was used per well and each peptide pool was assayed in duplicate wells. Note that the absolute amount of kinase used was not usually a critical parameter, because the desired information related to specificity of the kinase not its absolute activity, and robustness of the assay depends on comparisons of the same amount of kinase on different peptides. The combination of kinase concentration and assay duration was modified to assure that the stoichiometry of peptide phosphorylation never exceeded 5%. The choice of kinase buffer depended on the kinase being analyzed. For studies of PKC, 100 mM HEPES, 0.05% Triton-X100, 1 mM CaCl2, 20 mM MgCl2, 0.2 mg/ml phosphatidyl serine (Avanti Polar Lipids), PMA 100 ng/ml was typically used. The lipid stock was prepared by transferring 3 mg phosphatidyl serine into iced mixture of 450 μl water plus 50 μl of 10% Triton-X100, sonicating 10 times on ice for 1 sec each.
The kinase reaction mixture was assembled by sequential addition to a tube held on ice of: 5 μl peptide (100 μM for final concentration of 10 μM), 15 μl of kinase (typically 5 ng/well, in appropriate kinase buffer), 30 μl of ATP (1 uCi/well of ^32P-gamma ATP in a stock of 167 μM cold ATP in the kinase buffer; for final concentration for 100 μM ATP). The mixture was rapidly warmed to desired reaction temperature (30° C. for PKC) and incubated for the desired duration (usually 10 minutes). The kinase assay was terminated by transfer to 4° C. water batch, and rapid addition of an equal volume (50 μl) of stop solution [0.1M ATP+0.1M EDTA in water, pH 8].
The peptides were then captured from the reaction mixture by transfer to a Reacti-Bind Streptavidin High Binding Capacity Coated Plates (HBC) (Pierce Biotechnology) as follows. The HBC plates were pre-rinsed three times with PBS/Tween PBS/Tween20 0.05% (PBS/Tween). Part of all of the reaction mixture was then transferred wells of a HBC plate pre-filled with 90 μl of phosphate-buffered saline (PBS); typically each aliquots of each phosphorylation reaction were transferred to duplicate HBC plates to assure accuracy by additional replication
For kinase assays done at the standard peptide concentration of 10 μM, the peptide concentration in the reaction mixture becomes 5 μM after addition of the stop solution; consequently 10 μl of the reaction (50 pMoles of peptide) was transferred to the HBC plate. More generally, the amount of reaction mixture transferred was estimated to be about 50 pMoles of peptide. […] The HBC plates were incubated for 0.5 to 1.5 hr at room temperature for complete binding of biotinylated peptides to plate-bound streptavidin. The HBC plates were then washed extensively with PBS/Tween. Five washes were done routinely and additional wash steps were added if the wash solution removed from the plate had measurable radioactivity as detected using a Geiger counter. This step is essential to obtaining a good the signal to noise ratio because the fraction of radioactivity incorporated in the peptides was a tiny fraction of the total in the reaction mixture. The wells were air-dried. A volume of 40-50 μl of microScint-20 (Packard Instruments) was added to each well. The plates were covered with stick-on film sheet. Radioactive emissions were measured in a TopCount NXT Microplate Scintillation and Luminescence Counter (Packard Instruments). Typically samples were counted for 5 minutes (or more) to improve the signal to noise ratio when counts were low. […]

[2] = molecular target: T2, PKC-delta (Homo sapiens, UniProt Q05655); assay: In vitro kinase assay: peptide phosphorylation by PKC-delta; type: biochemical
T2 construct: purchased Calbiochem
T2 sequence (Q05655 whole entry): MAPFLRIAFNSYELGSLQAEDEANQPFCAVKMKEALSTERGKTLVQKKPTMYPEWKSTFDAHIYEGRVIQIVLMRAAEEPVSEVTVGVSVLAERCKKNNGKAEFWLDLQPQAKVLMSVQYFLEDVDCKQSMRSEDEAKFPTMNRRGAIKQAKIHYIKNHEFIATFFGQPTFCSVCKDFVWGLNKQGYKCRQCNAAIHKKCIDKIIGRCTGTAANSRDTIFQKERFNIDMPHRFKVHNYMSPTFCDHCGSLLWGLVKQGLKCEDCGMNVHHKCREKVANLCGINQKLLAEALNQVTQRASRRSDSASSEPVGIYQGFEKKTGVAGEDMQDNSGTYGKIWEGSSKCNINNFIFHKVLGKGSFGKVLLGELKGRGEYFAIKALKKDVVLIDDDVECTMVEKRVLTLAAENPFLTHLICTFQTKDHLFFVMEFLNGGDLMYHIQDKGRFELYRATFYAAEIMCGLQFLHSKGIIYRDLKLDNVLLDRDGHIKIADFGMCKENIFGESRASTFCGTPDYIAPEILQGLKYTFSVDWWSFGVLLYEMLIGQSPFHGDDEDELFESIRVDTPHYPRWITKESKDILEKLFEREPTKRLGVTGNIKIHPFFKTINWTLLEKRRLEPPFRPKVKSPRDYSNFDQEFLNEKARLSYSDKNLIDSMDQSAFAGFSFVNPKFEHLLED
How it was run: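 Biotin-Lys-dansyl-Lys-Pro-Pro-Gly-linked proteomic peptides (12–21-residue core) phosphorylated by PKC-delta in HEPES/Triton/CaCl2/MgCl2 buffer with phosphatidyl serine and PMA, 100 μM [γ-32P]ATP, 30° C., ~10 min, stoichiometry ≤5%; streptavidin-plate capture. Signal normalized as % of best peptide substrate.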

| Substance | PKA phosphorylation [1] [%] | phosphorylation by PKC-delta ([2]; peptide concentration 1 uM) | phosphorylation by PKC-delta ([2]; peptide concentration 10 uM) |
| --- | --- | --- | --- |
| 98 (AGPLRKSSLKKGGRL) [compound 98] | 21 |  |  |
| 81 (KRERKTSSKSSVRKRR) [compound 81] | 2 |  |  |
| 153 (TYLLPDKSRQGKRKTSIKRD) [compound 153] |  | 32 | 26 |
| 151 (PQNSLKASNRKKKRTSFKRK) [compound 151] |  | 27 | 37 |
| 148 (RELEQLKAEYLERRASRRRA) [compound 148] |  | 27 | 14 |
| 150 (VDPFYEMLAARKKRISVKKK) [compound 150] |  | 34 | 20 |
| 87 (RQGKRKTSIKRDTVNPL) [compound 87] | 64 |  |  |
| 152 (DLIEGRKGAQIVKRASLKRG) [compound 152] |  | 35 | 18 |
| 88 (KKPFKLSGLSFKRNRKE) [compound 88] | 3 |  |  |
| 149 (RVVQSVKHTKRKSSTVMK) [compound 149] |  | 20 | 17 |
| 97 (KKRSSKKEASMKKVVRP) [compound 97] | 1 |  |  |
| 91 (VHYTSKDTLRKRHYWR) [compound 91] | 3 |  |  |
